Columns and labels:
[1] = biological target: human serum protease thrombin (human, UniProt P00734 328-622); assay: phage binding to protein on beads (data not shown)
[2] = biological target: human serum protease plasmin (human, UniProt P00747 97-810, limits assumed); assay: phage binding to protein on beads (data not shown)
[3] = biological target: T1, recombinant human tissue-type plasminogen activator (tPA) (human, UniProt P00750 36-562); assay: phage display selection on tPA agarose beads, binding at pH 7
T1 construct: Immobilized on ReactiGel agarose beads for the phage work; Used in solution for the column tests
T1 sequence (P00750 36-562 limits assumed): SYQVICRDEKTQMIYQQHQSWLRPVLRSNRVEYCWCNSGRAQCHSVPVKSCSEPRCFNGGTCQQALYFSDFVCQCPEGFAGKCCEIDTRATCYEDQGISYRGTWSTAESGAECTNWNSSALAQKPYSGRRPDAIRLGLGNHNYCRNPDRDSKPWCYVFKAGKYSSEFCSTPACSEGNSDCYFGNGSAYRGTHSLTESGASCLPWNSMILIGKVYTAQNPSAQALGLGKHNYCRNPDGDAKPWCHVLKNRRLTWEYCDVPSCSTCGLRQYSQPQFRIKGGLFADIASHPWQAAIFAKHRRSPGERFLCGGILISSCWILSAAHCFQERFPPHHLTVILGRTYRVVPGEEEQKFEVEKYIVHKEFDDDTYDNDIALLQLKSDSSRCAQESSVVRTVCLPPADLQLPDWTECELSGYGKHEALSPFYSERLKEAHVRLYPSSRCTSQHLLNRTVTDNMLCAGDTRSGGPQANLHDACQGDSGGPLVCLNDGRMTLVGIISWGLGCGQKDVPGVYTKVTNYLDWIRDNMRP
Procedure: For this work, tPA was purchased from CalBiochem (#612200) and immobilized on ReactiGel™ agarose beads from Pierce Chemical Company by methods described in Markland et al. (1996). Approximately 200 μg of tPA were coupled to 200 μL of ReactiGel™ slurry.
The phage libraries described were screened for binding to tPA through four rounds. In the first round, the phage libraries were mixed in separate reactions with tPA agarose beads at pH 7 in phosphate-buffered saline (PBS). Bovine serum albumin (BSA) was added at 0.1% to reduce non-specific binding. Unbound phage were washed off at pH 7, and the bound phage eluted at pH 2 for the first screen only. […] Pool A consisted of the combined outputs from the CMTI and Lib#1 libraries, and Pool B consisted of the combined outputs of the Lib#3 and Lib#5 libraries. The binding of pooled libraries was performed at pH 7, however, the first elution to remove bound phage was carried out at pH 5 and a subsequent elution at pH 2 to elute phage that are released in the pH 5-pH 2 range. This was repeated twice more for a total of 4 rounds of selection.

[4] = biological target: T1, recombinant human tissue-type …; assay: phage isolate binding to and pH release from immobilized tPA

Chain of human serum protease plasmin (P00747 97-810 limits assumed): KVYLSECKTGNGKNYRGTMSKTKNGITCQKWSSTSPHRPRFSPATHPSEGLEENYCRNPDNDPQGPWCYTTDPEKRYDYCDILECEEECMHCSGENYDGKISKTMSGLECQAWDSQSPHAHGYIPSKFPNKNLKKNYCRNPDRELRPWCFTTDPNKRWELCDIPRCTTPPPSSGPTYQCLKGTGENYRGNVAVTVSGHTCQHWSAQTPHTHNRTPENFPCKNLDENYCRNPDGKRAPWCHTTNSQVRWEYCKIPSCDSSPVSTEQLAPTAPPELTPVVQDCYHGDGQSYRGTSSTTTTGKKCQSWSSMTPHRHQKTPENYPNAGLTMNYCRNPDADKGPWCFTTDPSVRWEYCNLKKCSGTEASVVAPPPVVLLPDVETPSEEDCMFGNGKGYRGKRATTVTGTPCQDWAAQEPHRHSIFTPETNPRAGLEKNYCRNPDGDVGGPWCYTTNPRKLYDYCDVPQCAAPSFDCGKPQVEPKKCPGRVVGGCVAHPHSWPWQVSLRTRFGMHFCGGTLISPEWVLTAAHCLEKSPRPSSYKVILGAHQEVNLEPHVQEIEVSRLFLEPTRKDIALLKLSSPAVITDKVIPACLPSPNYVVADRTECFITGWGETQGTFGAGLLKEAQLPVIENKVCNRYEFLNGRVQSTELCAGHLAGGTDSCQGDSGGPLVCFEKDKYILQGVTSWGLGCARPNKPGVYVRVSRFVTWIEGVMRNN

Binder	binding result [1]	binding result [2]	binding result [3]	binding result [4]
RWCPKTSLECMKDSDCLAECVCLEHGYCGAGPSYIEGRIVGSA (designed binder, not shown: mature gene III protein of M13 phage) [CMTI-I analogue 120, phage isolate]	no binding	no binding	binds	–
RWCSTYSLGCMKDSDCLAECVCLEHGYCGAGPSYIEGRIVGSA (designed binder, not shown: mature gene III protein of M13 phage) [CMTI-I analogue 106, phage isolate]	no binding	no binding	–	binds
RWCPKSTLGCMKDSDCLAECVCLEHGYCGAGPSYIEGRIVGSA (designed binder, not shown: mature gene III protein of M13 phage) [CMTI-I analogue 222, phage isolate]	no binding	no binding	binds	–
RLCPKTDLGCMKDSDCLAECVCLEHGYCGAGPSYIEGRIVGSA (designed binder, not shown: mature gene III protein of M13 phage) [CMTI-I analogue 113, phage isolate]	no binding	no binding	binds	–
RWCPRTVRRCMKDSDCLAECVCLEHGYCGAGPSYIEGRIVGSA (designed binder, not shown: mature gene III protein of M13 phage) [CMTI-I analogue 118, phage isolate]	no binding	no binding	binds	–
RWCSKSSLECMKDSDCLAECVCLEHGYCGAGPSYIEGRIVGSA (designed binder, not shown: mature gene III protein of M13 phage) [CMTI-I analogue 108, phage isolate]	no binding	no binding	–	binds
RWCPRSSLECMKDSDCLAECVCLEHGYCGAGPSYIEGRIVGSA (designed binder, not shown: mature gene III protein of M13 phage) [CMTI-I analogue 236, phage isolate]	no binding	no binding	binds	–
RWCPRSNLECMKDSDCLAECVCLEHGYCGAGPSYIEGRIVGSA (designed binder, not shown: mature gene III protein of M13 phage) [CMTI-I analogue 238, phage isolate]	no binding	no binding	binds	–
RWCSTYSLGCMKDSDCLAECVCLEHGYCGAGPSYIEGRIVGSA (designed binder, not shown: mature gene III protein of M13 phage) [CMTI-I analogue 104, phage isolate]	no binding	no binding	binds	–
RLCPKTSLECMKDSDCLAECVCLEHGYCGAGPSYIEGRIVGSA (designed binder, not shown: mature gene III protein of M13 phage) [CMTI-I analogue 107, phage isolate]	no binding	no binding	–	binds
RWCPKTSLGCMKDSDCLAECVCLEHGYCGAGPSYIEGRIVGSA (designed binder, not shown: mature gene III protein of M13 phage) [CMTI-I analogue 232, phage isolate]	no binding	no binding	binds	–
RWCPRSNLECMKDSDCLAECVCLEHGYCGAGPSYIEGRIVGSA (designed binder, not shown: mature gene III protein of M13 phage) [CMTI-I analogue 237, phage isolate]	no binding	no binding	binds	–
RLCPKTSLECMKDSDCLAECVCLEHGYCGAGPSYIEGRIVGSA (designed binder, not shown: mature gene III protein of M13 phage) [CMTI-I analogue 105, phage isolate]	no binding	no binding	–	binds
RWCPKYTLECMKDSDCLAECVCLEHGYCGAGPSYIEGRIVGSA (designed binder, not shown: mature gene III protein of M13 phage) [CMTI-I analogue 228, phage isolate]	no binding	no binding	binds	–
RWCPTAPLECMKDSDCLAECVCLEHGYCGAGPSYIEGRIVGSA (designed binder, not shown: mature gene III protein of M13 phage) [CMTI-I analogue 112, phage isolate]	no binding	no binding	binds	–
RWCPKTHKECMKDSDCLAECVCLEHGYCGAGPSYIEGRIVGSA (designed binder, not shown: mature gene III protein of M13 phage) [CMTI-I analogue 119, phage isolate]	no binding	no binding	binds	–
RWCPRSSLECMKDSDCLAECVCLEHGYCGAGPSYIEGRIVGSA (designed binder, not shown: mature gene III protein of M13 phage) [CMTI-I analogue 224, phage isolate]	no binding	no binding	binds	–

Binder	binding result [1]	binding result [2]	binding result [3]	binding result [4]
RWCPKSSMGCKKDSDCLAECVCLEHGYCGAGPSYIEGRIVGSA (designed binder, not shown: mature gene III protein of M13 phage) [CMTI-I analogue 110, phage isolate]	no binding	no binding	binds	–
RWCPKYTLECMKDSDCLAECVCLEHGYCGAGPSYIEGRIVGSA (designed binder, not shown: mature gene III protein of M13 phage) [CMTI-I analogue 233, phage isolate]	no binding	no binding	binds	–
RWCPKTSLGCMKDSDCLAECVCLEHGYCGAGPSYIEGRIVGSA (designed binder, not shown: mature gene III protein of M13 phage) [CMTI-I analogue 101, phage isolate]	no binding	no binding	binds	–
RWCPKSTLGCMKDSDCLAECVCLEHGYCGAGPSYIEGRIVGSA (designed binder, not shown: mature gene III protein of M13 phage) [CMTI-I analogue 221, phage isolate]	no binding	no binding	binds	–
RWCPKSTLGCMKDSDCLAECVCLEHGYCGAGPSYIEGRIVGSA (designed binder, not shown: mature gene III protein of M13 phage) [CMTI-I analogue 235, phage isolate]	no binding	no binding	binds	–
RLCPKTDLGCMKDSDCLAECVCLEHGYCGAGPSYIEGRIVGSA (designed binder, not shown: mature gene III protein of M13 phage) [CMTI-I analogue 109, phage isolate]	no binding	no binding	–	binds
RWCTKTSRECMKDSDCLAECVCLEHGYCGAGPSYIEGRIVGSA (designed binder, not shown: mature gene III protein of M13 phage) [CMTI-I analogue 115, phage isolate]	no binding	no binding	binds	–
RWCPKSALDCKKDSDCLAECVCLEHGYCGAGPSYIEGRIVGSA (designed binder, not shown: mature gene III protein of M13 phage) [CMTI-I analogue 114, phage isolate]	no binding	no binding	binds	–
RWCPKYTLECMKDSDCLAECVCLEHGYCGAGPSYIEGRIVGSA (designed binder, not shown: mature gene III protein of M13 phage) [CMTI-I analogue 223, phage isolate]	no binding	no binding	binds	–
RWCPKTSLGCMKDSDCLAECVCLEHGYCGAGPSYIEGRIVGSA (designed binder, not shown: mature gene III protein of M13 phage) [CMTI-I analogue 117, phage isolate]	no binding	no binding	binds	–
RWCPKYTLECMKDSDCLAECVCLEHGYCGAGPSYIEGRIVGSA (designed binder, not shown: mature gene III protein of M13 phage) [CMTI-I analogue 229, phage isolate]	no binding	no binding	binds	–
RWCSTYSLGCMKDSDCLAECVCLEHGYCGAGPSYIEGRIVGSA (designed binder, not shown: mature gene III protein of M13 phage) [CMTI-I analogue 103, phage isolate]	no binding	no binding	binds	–
RLCPKTYLGCMKDSDCLAECVCLEHGYCGAGPSYIEGRIVGSA (designed binder, not shown: mature gene III protein of M13 phage) [CMTI-I analogue 102, phage isolate]	no binding	no binding	binds	–
RWCPRTVQECMKDSDCLAECVCLEHGYCGAGPSYIEGRIVGSA (designed binder, not shown: mature gene III protein of M13 phage) [CMTI-I analogue 111, phage isolate]	no binding	no binding	binds	–
RWCPRSSLECMKDSDCLAECVCLEHGYCGAGPSYIEGRIVGSA (designed binder, not shown: mature gene III protein of M13 phage) [CMTI-I analogue 234, phage isolate]	no binding	no binding	binds	–
RWCPRSNLECMKDSDCLAECVCLEHGYCGAGPSYIEGRIVGSA (designed binder, not shown: mature gene III protein of M13 phage) [CMTI-I analogue 226, phage isolate]	no binding	no binding	binds	–
RWCIRTDLGCMKDSDCLAECVCLEHGYCGAGPSYIEGRIVGSA (designed binder, not shown: mature gene III protein of M13 phage) [CMTI-I analogue 116, phage isolate]	no binding	no binding	binds	–
